# Assay: soluble fraction after stress (log2 fold change); higher = more stays soluble; pooled small domains, quantitative proteomics
# Conditions: stress: 75 degC
# 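Note: 20 min heating vs room temperature control held 20 min.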
row,Sequence,soluble fraction (log2)
1,HMLAVPADFAEKLQSLRSQLASDDLDASDAFGRLQPFIKALYPAQLEALRKAVDDFDFVEATRLIDQLPQ,-0.376
2,HMLAYQRTYEKILEDLRNDVYPVNSLLPPEPKLEEIYHVSRTTVRRAIAQLADEGYVKVKQGYGTVVLKN,-2.02
3,HMLDEPPVSQTLTTYDREHMALYLRLLDSARDGADWREAVQILFGLDPTRDPLRSRHVHDTHLARARWM,-0.0384
4,HMLDFGQEDSEAVSEIILVLGRYWMDFSHKKYPEAEGSALRHKGISHIFTVLKPYLTSATAQLIEQRLQQ,-0.0669
5,HMLDIQKKGENIAYIEGAGDVIPESLKQIGYHVVTIAPKDINAETLSRFDAVVVGIRAYNTVEDL,0.0708
6,HMLDKIRTYIDNSFTGVNETKKVKELKDELFENLKEKYNDQIQDGKTEQEAYNSVISGIGDLSELIESVK,≥ 1.04
7,HMLDKKKHLEQGRKIIEDQLAKYKIQPSFDTLKKLSAYYGLNNKEQLYAQVGMGFLELENLDEILQ,0.307
8,HMLDLPVRTINGRQYYYYEVRNRETVYGLSKRLGVTREEIVRYNPSMADGLKRGAILYFPVDEFSDRI,-2.84
9,HMLDLSDFEVVRDLYLSEQIWNVGDLIIARSKKDDTYKAWEIIRKGTNYVTGIDESHKVEKIWLHDILI,-1.15
10,HMLDSPHDDLNRKIVQMLQNDGRLPYKDIAEVLSVSEGTVRNRVQRMRDAGMLNIVALIDPMAI,-0.0197
11,HMLDTPLTARELDVLYLMRQRMSAKEIAKQLGIATMTVNRHAANLYRKLGVNTRWDAVYRAEEVGILPP,-1.45
12,HMLDVNLIFSRPGFSLSAAFTLHAGGITVLRGDSGSGKTTLADLLSGAIAPQKGRILSDGDIWFDAASGIN,0.108
13,HMLDYITLSPQELGKLLSAGNGDAAMVYLYMKATGDVTLKQAETQLGMTNQNLAWAESLLKRLGLMD,-1.9
14,HMLDYKSALQELLQAQRRSRPRYEVISTEGPDHERVFEVAVWLDNEELGRGKGRSKREAEHQAAQAALTQL,-0.115
15,HMLDYQLQVFKDTLEANRKHRGQKIVFIHGKGEGVLRRALIHALNYQYKKFTYQDASFREYGYGATQVTI,-0.312
16,HMLEEIDYPEEQLQLLFAWSRDHVQSTPPGLPVVDDHVWHILVRGYGATDQRTEAFALLASYAGFP,0.135
17,HMLEIDPPVDEISVSRKAFYEAAGYKVNPYTHIPPRYRKEFEEHSFVVMSWPRELPEETYRKFDRYLRDV,0.0575
18,HMLEIRGFTVLLSDRGIVGIIEEIIQNPGQDLLRILSPEKREILVPLHSDLITGINKKKKTITMNLPDGL,-1.87
19,HMLELTGEEEFVIRTLTRQGDLHINALVVETDIPINRMISLLFELEMKGVVKALVGGVYHLLG,-2.45
20,HMLELTVSDKMARLMAWRNRRRVNLSDQELHRIAAAPKQSPESILKMLPGFLQDSVPEIWAELTGGRP,-1.24
21,HMLENSLDHIEGIGPKTKDTLLTYFKSVSKIKSANPSILAELIGAAKTKILLAAFEKEKTTS,-0.7
22,HMLENYEGFKQKILKLTGIDLSSYKERQMRRRIDSLIHRNNYDDYDEYFKALTQNSNLYDEFINYLTI,-0.823
23,HMLEQEDMYGYQMIETLRERSEHSFDLKAGTLYPLLHALEQKGLITARDEASAAGRPRRYYHLTDAG,-0.354

row,Sequence,soluble fraction (log2)
1,HMLERPLFTPEQYGRFRGKEARIRLSNPVEGRKTLTGSIVEATEERIVVFVEEEEREVTVPFQWIKSGNL,-0.544
2,HMLESVMHSRIAEIISREGTAPAHMSMQEKIRVVHKLDADGILMMKGAVAEIADQLSVSVPTIYRYLNKPQ,-2.49
3,HMLETILQIGKDGVGENLVKQVNDALEARELIKGRVLDNNLELDARTAAQILAKATRSEVVQVIGTKFV,-0.00194
4,HMLEVTQTDVKMYTTSGTPVYAAPDLNSAIVVYLERFVNVTVTGITDNGFYRVNLNGDYYIPGPYLISSV,-3.92
5,HMLEYIEPRTAVQIHGIKAKPELNGKRGMVMGYAPERMRYRVRIDVGEGTGGKESEEVYLKPENVIAVK,0.0615
6,HMLFKGDTREENVILEFLSKNGTTSSDAIIKQTGLSASEFNQAITMLELKGLALNNGGEKWSL,0.304
7,HMLGDAVLRQVLETIPEDPAVDYLELRRNTGMTEADLDRVLADLENLGVINKKRTVEQVLYWRT,-0.651
8,HMLGDAWSMLILRDAHSGFSRFDQFRKSLGIAPTMLTKRLSVLVDEGLLEKRQYSEHPPREEYVLTQAGQD,-0.0775
9,HMLGERIRTLRKEIGMSVTELARRVKTSPSHISEIERGEKMPSLNLLVKIAKELKTSIDYLTGLVG,-0.498
10,HMLGNIERALEMLQEVAATMDPVDIRLLLSMAQVESVRGNTEAAVKLIDEALVIDPGNERIEQIRLRVL,-0.482
11,HMLGRPDMSPIPEGSRNNDLHAWGFGRLANHPDNKRQIEADFFERGRISGLGDAEIRASWNSILRQLGHQ,0.0693
12,HMLGSVRTIRQVLDDGRLIVADGGGNPSVIRRSGALAHETFANGQRVIVDPSGRLALELLPD,0.171
13,HMLGVLEYYNNGQKKSERTFKGGMQIYTEWYENGQMKAEERKWIDQLGSLKFLNLLSTEWDENGNEISRME,-1.55
14,HMLGYGEQEREAQKYLEMHTAFQADPSLQKMYLPENQYALISKVMEMTGIKNVKSYLTPPNEL,-0.193
15,HMLHVRSALMSELDGIEGIGEKRKRLLFDAFITRDAIAAATLEQLMAVKGMNRPSAEAVHKHFHG,-0.985
16,HMLIELKIPSEWAGKSLHTLNLRQNYNVNVIGFRDEKSGKLNTHFDPSKKLPDEGIILVVADNRTLEKF,-0.7
17,HMLIIDLPDFTNKKLSELQQWADANQITLKIVEKDVSSKPYDTILEQTPAKNKYEKIVKGSTMTVTVNIK,-0.965
18,HMLINFPNKLKRLRLANNLTQQELANILETTKQAVSSYESGKSTPSLNSLIKLSEHFNISLDSLVFD,-0.038
19,HMLINIKTNSAVNVRSGPGMGFEVVNTYPSGYILQAKEMQKDGGDNVWYKVKDGWLSANYTIDI,-0.787
20,HMLINPLDILRNFNLSLYDDSRDSASNKEIDEIFESIKTNNSHIFSTLKAYRIPLPIASLIIKKIIKITLE,-0.891
21,HMLISDENMLRDLVQAVLDENPKSVSDYKSGKTKAFGFLVGQTMKAVKGQADPMLVNKILTELLN,0.236
22,HMLISYRVDALANEAGLSVDTIRYYQKLGILDPPKRTGRHSEYSPDHLERLIEIRRLADAGLTLSQISEI,-2.55
23,HMLKAKKIPVSDLEKFKGIVAEDVVSKAKALILPRGSNLSWLSNVAKKNLIAKLKAEGIEYISVYSS,-0.47

row,Sequence,soluble fraction (log2)
1,HMLKDGPIGAYADSVIRDIIEKMERFSKEHINVDMLKIHEKIMLIDEPIIRMALLDEFHRVSHDN,-2.47
2,HMLKEKETRALANFTNKFFGLDISEDLKPIALSELSKFKKTHKISNLEEFINSFQYDFQNEKILSLLDIFL,-1.34
3,HMLKFPIGTHVGKKKPSANLSLPNKHGVVIGHGERRNAKGAIMRFYIVETTHSSRPEEWAPGITYPL,-2.72
4,HMLKHEEIQEYIKEQINSGTWKPKAKLPSLRDMSELFSTSIGTVLTAYSALEKKHIIYSIPRSGYYVLG,-4.48
5,HMLKLEDIKKDAQVKGIVDGQIVRIVTVEPIGDHALTVYYKDHQGQFAERMLFRSDELNLELATA,-0.244
6,HMLKLSGEESQQLALRLREELARRRITRQGLADAAKISISTLEQVLAGRRTFTLATIVRLEEGLGIKLL,-2.65
7,HMLKNKSTGNINETKAILELALNHSHFKVFDNRDMTVTFKNLATQFTTMQRILVQMFFPLPAGVELIIE,0.428
8,HMLKNYATPEQRAQLDMLKDKGIIGENELMQLGKYPSQDKASEVLENHADAVKMLDSDEISNRAEAIRSHD,0.173
9,HMLKPQQTQRIYAMAARLGVLESGNKNDMLHTIVYRLTQKESIRSLNENEYKTVVSELAERLKL,-1.12
10,HMLKQLGRQEGRQEGAVDALRTVLALQIEQRFGPLDPTVQALIVAADIDALQRALSRVAVVSDLGAVFPP,-0.875
11,HMLKRLTVEFSAEMPKKMTSEQKEELASVLSEDPRPAYQNDENREYGLDYGEFSVKFKVKDGVLTVTSVTE,-0.0802
12,HMLLNLSPIETQVLRLIQQDKKVTYESIGKELTIGQTKVYKVLGHLKELNVIERIGGRTYGHWHILL,-1.33
13,HMLLNPFERLTERELEIADLYAKGYGNLEIANFLSIKQNTVSTYKKRIFEKLGIDNLVELIELIKNY,0.265
14,HMLLQTRQRHEALAALGYFKGDVAAAWGPASEEALRAAQAAFGITVDGKWGPQTEDAIQGALQV,-0.357
15,HMLLREKLESVLPFISVSALAKTYFKRSPQWFYQRLNGSIVNGKPIRFNDAELKTLAGALTDIGKKISQAA,-0.285
16,HMLLSEPSVLKFNDDNSYEIVSGFLTEYKDKIVKIERRYKKATVKITVAGEEKEIKVSFVEDTE,-1.43
17,HMLLSTHVVVAKEDVQIGTRLQPAMLQVVDWPSASPLKNPLTSIEQATDRVVNMPLVKGEPISMSKLAAKG,-0.296
18,HMLLTASNYFKETKGINFSELPEALQKGHSFVIKSTENGTNWNAYSTSQNIQRVIDAYFSKLDEYLEKNQ,-0.578
19,HMLLTHEEQIVKRGWQAPVGPFAILDSRAEAMHGDLEMLRGDREAAEQHFRRAWQIIGPIVEQ,-0.0144
20,HMLMKILTDALEKMSPEELKELAEATGVKNTSSITPETMVGVFQAVFRVGGFKSYQLTLIIVNAVLKA,-0.148
21,HMLMRKAEVGVESLNLRHGPGTQYKVLEILPGGKSLHYLAEPRRGWVRVTTEEGTTGWTFLKFLKPE,-2.22
22,HMLNENNHGEWSIRMSNGLVVRLGRDELNRSLRRSIMAYAGLAPNYRSSIEYIDARYLGGVALKTF,-0.159
23,HMLNKRQAEILAEVSRLKEITPSELYKLQPNVSSRTLRRDMDVLVNKGLVSQDGSTKSTKYTYL,0.193

# Reference: the domain aggregation screens of Martell et al. (2025)
